As usually defined, the EC50 is the concentration that produces a half-maximal response.

Our source for the EC50 values is patent publication US11155602B2, “Polypeptides targeting HIV fusion” (priority 2015, dated 2021).

The test system of the assay is NL-Rluc virus. Kind of assay: Combinectin potency assay: antiviral EC50, NL-Rluc virus in MT-2 cells, luciferase readout. Conditions: Anti-N17 Adnectin, Table 3. The class given is cell-based, HIV-1. The method, then: MT-2 cells, HEK 293T cells and the proviral DNA clone of […] were obtained from the NIH AIDS Research and Reference Reagent Program. MT-2 cells were propagated in RPMI 1640 medium supplemented with 10% heat-inactivated fetal bovine serum (FBS), 10 mM HEPES buffer pH 7.55, and 2 mM L-glutamine. HEK 293T cells were propagated in DMEM media supplemented with 10% heat-inactivated FBS, 10 mM HEPES buffer pH 7.55 and 2 mM L-glutamine. Recombinant NL-Rluc virus, in which a section of the nef gene from the proviral clone of NL4-3 was replaced with the Renilla luciferase gene, was constructed at Bristol-Myers Squibb. The replication-competent virus was harvested 3 days after transfection of HEK 293T cells with the modified pNL-Rluc proviral clone. Transfections were performed using Lipofectamine Plus (Invitrogen, Carlsbad, Calif.), according to manufacturer's instruction. Virus was titered in MT-2 cells using luciferase enzyme activity as a biomarker. The NL-Rluc virus used to infect MT-2 cells a multiplicity of 0.01 for 1 hour before adding to the peptides in 96-well plates. Peptides were serially diluted three-fold and 11 concentrations were plated in triplicate. After 4-5 days of incubation, cells were processed and quantitated for virus growth by the amount of expressed luciferase. Luciferase was quantitated using the Dual Luciferase kit from Promega (Madison, Wis.), with modifications to the manufacturer's protocol. The diluted Passive Lysis solution was pre-mixed with the re-suspended Luciferase Assay Reagent and then re-suspended in STOP & GLO® Substrate (2:1:1 ratio). A total of […] of the mixture was added to each aspirated well on assay plates and luciferase activity was measured immediately on a Wallac TriLux (Perkin-Elmer, Waltham, Mass.). The 50% effective concentration (EC50) was calculated by comparing the amount of luciferase produced in the presence of inhibitory peptide compared to wells where no peptide was added.

B1: 120 (protein)
chain: MGHHHHHHGGVSDVPRDLEVVAATPTSLLISWEYNVNPYRYYRITYGETGGNSPVQEFTVPSVLSSAQISGLKPGVDYTITVYAVTRGVDSAPISINYRTPGG
modifications: Adnectin
Turning to B1, the concentration for a half-maximal effect (EC50) was 39 nM.

B2: 121 (protein)
chain: MGHHHHHHGGVSDVPRDLEVVAATPTSLLISWEYNVNPYRYYRITYGETGGNSPVQEFTVPSVLSTAEISGLKPGVDYTITVYAVTYGVDSDPISINYRTPGG
modifications: Adnectin
B2: the concentration for a half-maximal effect (EC50) came out at 57 nM.

B3: 171 (protein)
chain: MGHHHHHHGGSVSDVPRDLEVVAATPTSLLISWKYQVHAYRYYRITYGETGGNSPVQEFTVPSVLSTATISGLKPGVDYTITVYAVTYGIISEPISINYRTEID
modifications: Adnectin
On to B3, for which the EC50 amounted to 35 nM.

B4: 174 (protein)
chain: MGHHHHHHGGSVSDVPRDLEVVAATPTSLLISWEYNVNAYRYYRITYGETGGNSPVQEFTVPSVLSTATISGLKPGVDYTITVYAVTYGIISEPISINYRTEID
modifications: Adnectin
With B4, the EC50 is 5 nM.

B5: 184 (protein)
chain: MGHHHHHHGGSVSDVPRDLEVVAATPTSLLISWEYKVHPYRYYRITYGETGGNSPVQEFTVPSVLSTATISGLKPGVDYTITVYAVTYGDVSAPISINYRTEID
modifications: Adnectin
For the molecule B5, the 50% effective concentration (EC50) amounted to 20 nM.

B6: 181 (protein)
chain: MGHHHHHHGGSVSDVPRDLEVVAATPTSLLISWEYKVHPYRYYRITYGETGGNSPVQEFTVPSVLSTATISGLKPGVDYTITVYAVTYGDHSAPISINYRTEID
modifications: Adnectin
B6: the half-maximal effective concentration (EC50) amounted to 631 nM.

B7: 183 (protein)
chain: MGHHHHHHGGSVSDVPRDLEVVAATPTSLLISWEYKVHPYRYYRITYGETGGNSPVQEFTVPSVLSTATISGLKPGVDYTITVYAVTYGIDSAPISINYRTEID
modifications: Adnectin
For the molecule B7, the half-maximal effective concentration (EC50) was 20 nM.

B8: 176 (protein)
chain: MGHHHHHHGGSVSDVPRDLEVVAATPTSLLISWEYKVHHDRYYRITYGETGGNSPVQEFTVPSVLSTATISGLKPGVDYTITVYAVTYGIESSPISINYRTEID
modifications: Adnectin
B8: the EC50 was greater than 1000 nM.

B9: 177 (protein)
chain: MGHHHHHHGGSVSDVPRDLEVVAATPTSLLISWEYKVHPYRYYRITYGETGGNSPVQEFTVPSVLSTATISGLKPGVDYTITVYAVTYGDDSAPISIPYRTPGG
modifications: Adnectin
On to B9, for which the EC50 worked out at 252 nM.

B10: 173 (protein)
chain: MGHHHHHHGGAVSDVPRDLEVVAATPTSLLISWEYKVNPWRYYRITYGETGGNSPVQEFTVPSVLSTATISGLKPGVDYTITVYAVTYGVHSSPISINYRTEID
modifications: Adnectin
As to B10, the EC50 amounted to 5 nM.

B11: 199 (protein)
chain: MGHHHHHHGGSVSDVPRDLEVVAATPTSLLISWEYKVHPYRYYRITYGETGGNSPVQEFTVPSVLSTATISGLKPGVDYTITVYAVTYGDDSQPISINYRTEID
modifications: Adnectin
Take B11: the EC50 is greater than 1000 nM.

B12: 193 (protein)
chain: MGHHHHHHGGSVSDVPRDLEVVAATPTSLLISWEYKVHPYRYYRITYGETGGNSPVQEFTVPSVLSTATISGLKPGVDYTITVYAVTYGKDSAPISINYRTEID
modifications: Adnectin
As for B12, the EC50 turned out to be 252 nM.

B13: 187 (protein)
chain: MGHHHHHHGGSVSDVPRDLEVVAATPTSLLISWEYKVHPYRYYRITYGETGGNSPVQEFKVPSVLSTATISGLKPGVDYTITVYAVTYGDDSAPISINYRTEID
modifications: Adnectin
For B13, the concentration giving a half-maximal response (EC50) was 86 nM.

B14: 200 (protein)
chain: MGHHHHHHGGSVSDVPRDLEVVAATPTSLLISWEYKVHPYRYYRITYTETGGNSPVQEFTVPSVLSTATISGLKPGVDYTITVYAVTYGDDSAPISINYRTEID
modifications: Adnectin
For B14, the EC50 is greater than 1000 nM.

B15: 197 (protein)
chain: MGHHHHHHGGSVSDVPRDLEVVAATPTSLLISWEYKVHPYRYYRITYGETGGNSPVQEFTVPSVLSTATISGLKPGVDYTITVYAVTYGDDSGPISINYRTEID
modifications: Adnectin
With B15, the EC50 came out at 81 nM.

B16: 192 (protein)
chain: MGHHHHHHGGSVSDVPRDLEVVAATPTSLLISWEYKVHPYRYYRITYGETGGNSPVQEFTVPSVLSTATISGLKPGVDYTITVYAVTYGTDSAPISINYRTEID
modifications: Adnectin
Take B16: the EC50 amounted to 2830 nM.

B17: 188 (protein)
chain: MGHHHHHHGGSVSDVPRDLEVVAATPTSLLISWEYKVHPYRYYRITYGETGGNSPVQEFTVPSVLSTATISGLKPGVDYTITVYAVTYGDLSAPISINYRTEID
modifications: Adnectin
With B17, the EC50 was determined as 86 nM.

B18: 189 (protein)
chain: MGHHHHHHGGSVSDVPRDLEVVAATPTSLLISWEYKVHPYRYYRITYGETGGNSPVQEFTVPSVLSTATISGLKPGVDYTITVYAVTYGKDSAPISINYRTEID
modifications: Adnectin
With B18, the EC50 is greater than 1000 nM.

B19: 190 (protein)
chain: MGHHHHHHGGSVSDVPRDLEVVAATPTSLLISWEYKVHPYRYYRITYGETGGNSPVQEFTVPSVLSTATISGLKPGVDYTITVYAVTYGADSAPISINYRTEID
modifications: Adnectin
As to B19, the concentration for a half-maximal effect (EC50) is greater than 1000 nM.

B20: 175 (protein)
chain: MGHHHHHHGGSVSDVPRDLEVVAATPTSLLISWEYKVHYDRYYRITYGETGGNSPVQEFTVPSVLSTATISGLKPGVDYTITVYAVTYGVQSTPISINYRTEID
modifications: Adnectin
For the molecule B20, the concentration giving a half-maximal response (EC50) amounted to 5 nM.

B21: 194 (protein)
chain: MGHHHHHHGGSVSDVPRDLEVVAATPTSLLISWEYKVHPYRYYRITYGETGGNSPVQEFTVPSVLSTATISGLKPGVDYTITVYAVTYGDPSAPISINYRTEID
modifications: Adnectin
As to B21, the half-maximal effective concentration (EC50) was greater than 1000 nM.

B22: 191 (protein)
chain: MGHHHHHHGGSVSDVPRDLEVVAATPTSLLISWEYKVHPYRYYRITYGETGGNSPVQEFTVPSVLSTATISGLKPGVDYTITVYAVTYGTDSAPISINYRTEID
modifications: Adnectin
As for B22, the EC50 is greater than 1000 nM.

B23: 179 (protein)
chain: MGHHHHHHGGSVSDVPRDLEVVAATPTSLLISWEYKVHPYRYYRITYGETGGNSPVQEFTVPSVLSTATISGLKPGVDYTITVYAVTYGDDSRPISINYRTEID
modifications: Adnectin
In the case of B23, the concentration for a half-maximal effect (EC50) is greater than 1000 nM.

B24: 196 (protein)
chain: MGHHHHHHGGSVSDVPRDLEVVAATPTSLLISWEYKVHPYRYYRITYGETGGNSPVQEFTVPSVLSTATISGLKPGVDYTITVYAVTYGDVSAPISINYRTEID
modifications: Adnectin
In the case of B24, the concentration for a half-maximal effect (EC50) was 86 nM.

B25: 180 (protein)
chain: MGHHHHHHGGSVSDVPRDLEVVAATPTSLLISWEYKVHPYRYYRITYGETGGNSPVQEFTVPSVLSTATISGLKPGVDYTITVYAVTYGKDSAPISINYRTEID
modifications: Adnectin
As to B25, the EC50 was greater than 1000 nM.

B26: 172 (protein)
chain: MGHHHHHHGGSVSDVPRDLEVVAATPTSLLISWEYKVDPYRYYRITYGETGGNSPVQEFTVPSVLSTATISGLKPGVDYTITVYAVTYGIDSSPISINYRTEID
modifications: Adnectin
B26: the EC50 was found to be 5 nM.

B27: 186 (protein)
chain: MGHHHHHHGGSVSDVPRDLEVVAATPTSLLISWEYKVHPYRYYRITYGETGGNSPVQEFTVPSVLSTATISGLKPGVDYTITVYAVTYGEDSAPISINYRTEID
modifications: Adnectin
B27: the concentration for a half-maximal effect (EC50) stood at 2830 nM.

B28: 195 (protein)
chain: MGHHHHHHGGSVSDVPRDLEVVAATPTSLLISWEYKVHPYRYYRITYGETGGNSPVQEFTVPSVLSTATISGLKPGVDYTITVYAVTYGDDSQPISINYRTEID
modifications: Adnectin
Take B28: the 50% effective concentration (EC50) is greater than 1000 nM.

B29: 198 (protein)
chain: MGHHHHHHGGSVSDVPRDLEVVAATPTSLLISWEYKVHPYRYYRITYGETGGNSPVQEFTVPSVLSTATISGLKPGVDYTITVYAVTYGDDSAPISIQYRTEID
modifications: Adnectin
B29: the EC50 turned out to be 2830 nM.

B30: 182 (protein)
chain: MGHHHHHHGGSVSDVPRDLEVVAATPTSLLISWEYKVHPYRYYRITYGETGGNSPVQEFTVPSVLSTATISGLKPGVDYTITVYAVTYGDQSAPISINYRTEID
modifications: Adnectin
Take B30: the EC50 is greater than 1000 nM.
